Results on 84 variants are retold here after the RNAGym collection of RNA variant scans (doi:10.1093/molbev/msab373).

To fix the notation:
B1: Azoarcus group I ribozyme (parent)
chain: GUGCCUUGCGCCGGGAAACCACGCAAGGGAUGGUGUCAAAUUCGGCGAAACCUAAGCGCCCGCCCGGGCGUAUGGCAACGCCGAGCCAAGCUUCGGCGCCUGCGCCGAUGAAGGUGUAGAGACUAGACGGCACCCACCUAAGGCAAACGCUAUGGUGAAGGCAUAGUCCAGGGAGUGGCGAAAGUCACACAAACCGG

This series covers variants of B1. Briefly: reverse-splicing fitness (ratio to wild type); higher = more active; in vitro selection; Mg2+ level not given. In outline: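 An in vitro group I ribozyme library with randomized positions was T7-transcribed and gel-purified. In triplicate, 10 pmol RNA in EPPS pH 7.5 was reacted with 50 pmoles of a 30-nt RNA substrate for 1 h at 37 °C across several added MgCl2 levels (1–48 mM), then stopped with EDTA. Products were reverse transcribed from a substrate-complementary primer, PCR-amplified and sequenced (HiSeq 4000). Fitness is a variant's read proportion after selection over that before, normalised to wild type.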
In the case of C82A A111U A120G A145G C150A C169A U176A, the reverse-splicing fitness came to 0.0191.
To C82A A111U A120G A145G C150A C169A U176C belongs 0.0248.
To C82A A111U A120G A145C C150U C169U U176A belongs 0.0202; to C82A A111U A120G A145C C150U C169U U176C, 0.0127; to C82A A111U A120G A145C C150U C169U U176G, 0.00596.
To C82A A111U A120G A145G C150A C169G belongs 0.00912.
For C82A A111U A120G A145G C150A C169A, the reverse-splicing fitness was found to be 0.0112.
For C82A A111U A120G A145G C150A C169U, the reverse-splicing fitness worked out at 0.00929.
Next, C82A A111U A120U A145C C150G C169U U176A: 0.00314; C82A A111U A120U A145C C150G C169U U176G: 0.00301; C82A A111U A120U A145C C150G C169U U176C: 0.00285.
Next, C82A A111U A120U A145G C150A C169A: 0.00807; C82A A111U A120U A145G C150A C169G: 0.00618.
With C82A A111U A120U A145G C150A C169U, the reverse-splicing fitness is 0.00475.
Next, C82A A111U A120G A145G C150A C169G U176G: 0.00589; C82A A111U A120G A145G C150A C169G U176C: 0.0255; C82A A111U A120G A145G C150A C169G U176A: 0.0172.
Next, C82A A111U A120G A145U C150G C169A U176G: 0.00552; C82A A111U A120G A145U C150G C169A U176C: 0.00995; C82A A111U A120G A145U C150G C169A U176A: 0.0086.
Next, C82A A111U A120G C150G U176A: 0.00663.
With C82A A111U A120G C150G U176C, the reverse-splicing fitness amounted to 0.00922.
Next, C82A A111U A120G C150G U176G: 0.00319.
To C82A A111U A120G A145G C169G U176A belongs 0.021; to C82A A111U A120G A145G C169G U176G, 0.00424.
Next, C82A A111U A120G A145G C169G U176C: 0.0285; C82A A111U A120U A145G: 0.0209.
In the case of C82A A111U A120U A145C, the reverse-splicing fitness was found to be 0.0205.
To C82A A111U A120U A145G C150U C169G U176A belongs 0.00984.
To C82A A111U A120U A145G C150U C169G U176G belongs 0.00271; to C82A A111U A120U A145G C150U C169G U176C, 0.00667; to C82A A111U A120U A145G C150G C169A U176G, 0.00618.
To C82A A111U A120U A145G C150G C169A U176C belongs 0.0099.
As to C82A A111U A120U A145G C150G C169A U176A, the reverse-splicing fitness is 0.0119.
Regarding C82A A111U A120U, the reverse-splicing fitness came out at 0.0228.
To C82A A111U A120G A145G C150G C169G U176A belongs 0.0109; to C82A A111U A120G A145G C150G C169G U176G, 0.00619.
In the case of C82A A111U A120G A145G C150G C169G U176C, the reverse-splicing fitness amounted to 0.0107.
To C82A A111U A120G C150G C169G U176G belongs 0.00446.
On to C82A A111U A120G C150G C169G U176A, for which the reverse-splicing fitness amounted to 0.00798.
To C82A A111U A120G C150G C169G U176C belongs 0.0044.
Next, C82A A111U A120U A145G C150A U176G: 0.00328.
Next, C82A A111U A120U A145G C150A U176C: 0.00989.
As to C82A A111U A120U A145G C150A U176A, the reverse-splicing fitness came to 0.00879.
To C82A A111U A120U A145C U176A belongs 0.00613; to C82A A111U A120U A145C U176C, 0.00758; to C82A A111U A120U A145C U176G, 0.00274.
For C82A A111U A120G A145U C150A C169A U176A, the reverse-splicing fitness was 0.0146.
Next, C82A A111U A120G A145U C150A C169A U176G: 0.00486; C82A A111U A120G A145U C150A C169A U176C: 0.0119.
For the variant C82A A111U A120G A145G C150U U176A, the reverse-splicing fitness worked out at 0.00963.
Next, C82A A111U A120G A145G C150U U176G: 0.00803.
Next, C82A A111U A120G A145G C150U U176C: 0.0178; C82A A111U A120G A145U C150A C169U: 0.0069; C82A A111U A120G A145U C150A C169A: 0.00942.
Turning to C82A A111U A120G A145U C150A C169G, the reverse-splicing fitness was 0.00859.
Next, C82A A111U A120G A145C C169U U176A: 0.0212; C82A A111U A120G A145C C169U U176C: 0.0136.
As for C82A A111U A120G A145C C169U U176G, the reverse-splicing fitness was determined as 0.00478.
To C82A A111U A120U A145G C150A C169U U176A belongs 0.00626; to C82A A111U A120U A145G C150A C169U U176C, 0.00543; to C82A A111U A120U A145G C150A C169U U176G, 0.00326.
To C82A A111U A120G A145G C169A belongs 0.00997; to C82A A111U A120G A145G C169U, 0.00913.
Next, C82A A111U A120G A145G C169G: 0.0107; C82A A111U A120G C169U U176C: 0.0195; C82A A111U A120G C169U U176G: 0.00615.
Take C82A A111U A120G C169U U176A: the reverse-splicing fitness stood at 0.0201.
For the variant C82A A111U A120G A145U C150U C169G, the reverse-splicing fitness was found to be 0.0104.
Next, C82A A111U A120G A145U C150U C169A: 0.0101; C82A A111U A120G A145U C150U C169U: 0.00891; C82A A111U A120U A145C C150U C169U U176G: 0.00236.
To C82A A111U A120U A145C C150U C169U U176A belongs 0.00291; to C82A A111U A120U A145C C150U C169U U176C, 0.00282.
To C82A A111U A120G A145C C150G C169U U176G belongs 0.00584; to C82A A111U A120G C150A U176G, 0.0101.
As for C82A A111U A120G C150A U176C, the reverse-splicing fitness is 0.0188.
Next, C82A A111U A120G C150A U176A: 0.0123.
With C82A A111U A120G A145U C169G, the reverse-splicing fitness was determined as 0.00975.
For the variant C82A A111U A120G A145U C169A, the reverse-splicing fitness was 0.00877.
Next, C82A A111U A120G A145U C169U: 0.00974; C82A A111U A120U A145G C150U: 0.0195; C82A A111U A120U A145G C150A: 0.00899.
Next, C82A A111U A120U A145G C150G: 0.00842.
